B1: YPEL3 (parent)
chain: SKPKTFQAYLDDCHRRYSCAHCRA

Variants of: B1
Experiment: protein stability index of a GFP-peptide fusion (GPS, HEK-293T) (PSI 1-6); higher = more stable
Conditions: c terminus: a fixed tail appended
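Also: lentivirally expressed fusions sorted by FACS into six bins by GFP to DsRed ratio, PSI derived from sequencing read proportions per bin multiplied by bin number.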

Row | Variant | protein stability index
1 | SKPKTFQAYLDDCHRRYNCAHCRA [S18N] | 2.06
2 | QKPKTFQAYLDDCHRRYSCAHCRA [S1Q] | 2.08
3 | SKPKDFQAYLDDCHRRYSCAHCRA [T5D] | 2.94
4 | SKPKTFQAYLLDCHRRYSCAHCRA [D11L] | 2.11
5 | SKPKTFQAYLDDCHRRYSCAHCNA [R23N] | 2.91
6 | SKPKTFQAYLDRCHRRYSCAHCRA [D12R] | 2.4
7 | SKPKTFQAYLDDCFRRYSCAHCRA [H14F] | 1.07
8 | SKPKTFQAYLDPCHRRYSCAHCRA [D12P] | 2.57
9 | SKPKTFQAYLDDCHRRYSCRHCRA [A20R] | 1.72
10 | SKPKTFQAYLDDCHRRYSCAHCQA [R23Q] | 1.86
11 | SKPKTFQALLDDCHRRYSCAHCRA [Y9L] | 1.96
12 | SKPKTEQAYLDDCHRRYSCAHCRA [F6E] | 3.4
13 | SKPKTFQAYLDDCLRRYSCAHCRA [H14L] | 1.82
14 | SCPKTFQAYLDDCHRRYSCAHCRA [K2C] | 2.38
15 | SKPKTFQAYLDDCHFRYSCAHCRA [R15F] | 2.07
16 | SKPKTFQAYLYDCHRRYSCAHCRA [D11Y] | 1.72
17 | SKPETFQAYLDDCHRRYSCAHCRA [K4E] | 2.09
18 | SKPKTFQAYLEDCHRRYSCAHCRA [D11E] | 2.59
19 | SKYKTFQAYLDDCHRRYSCAHCRA [P3Y] | 1.72
20 | SKPKTFQAYLDDCHRRPSCAHCRA [Y17P] | 1.93
21 | SKPKTFQAYLDDCHRRYSEAHCRA [C19E] | 3.18
22 | SKPKTFQAYLDDCHRRYLCAHCRA [S18L] | 2.14
23 | SKPKTFQAYRDDCHRRYSCAHCRA [L10R] | 2.62
24 | SKPKTFQAYLDDCHRRYSAAHCRA [C19A] | 2.51

Row | Variant | protein stability index
25 | SKHKTFQAYLDDCHRRYSCAHCRA [P3H] | 1.54
26 | SKPKTFQAYLDDCHRRYSCAHCCA [R23C] | 1.24
27 | SKPKTFQAYLDDCHQRYSCAHCRA [R15Q] | 1.65
28 | KKPKTFQAYLDDCHRRYSCAHCRA [S1K] | 1.98
29 | SKPKTFQAYLDDLHRRYSCAHCRA [C13L] | 2.12
30 | SKPWTFQAYLDDCHRRYSCAHCRA [K4W] | 1.59
31 | SKPKTFQAYPDDCHRRYSCAHCRA [L10P] | 2.79
32 | SKPKTFQATLDDCHRRYSCAHCRA [Y9T] | 1.52
33 | SKPKTFQAYLDDCHRRESCAHCRA [Y17E] | 2.66
34 | SKPKTFQAYLDDCHRRYSCAHMRA [C22M] | 1.98
35 | SKPKTFQAYLDDCHRRYSCAHCRC [A24C] | 1.83
36 | SKPKTFQAYLDDCHRPYSCAHCRA [R16P] | 1.94
37 | SKSKTFQAYLDDCHRRYSCAHCRA [P3S] | 1.82
38 | SKPKTFFAYLDDCHRRYSCAHCRA [Q7F] | 3.06
39 | SKPKTFQAYLDDCHRRYSCAHERA [C22E] | 2.34
40 | SKPATFQAYLDDCHRRYSCAHCRA [K4A] | 2.47
41 | SKPKTFQAYLGDCHRRYSCAHCRA [D11G] | 1.97
42 | SKPKTFQPYLDDCHRRYSCAHCRA [A8P] | 2.62
43 | SKPKTFQAYLDDCHRRYSCAVCRA [H21V] | 1.79
44 | SKPKTFQAYLDDCHRRYSCEHCRA [A20E] | 1.46
45 | SKPKTFQAYLDDCHRRYMCAHCRA [S18M] | 2.73
46 | SLPKTFQAYLDDCHRRYSCAHCRA [K2L] | 1.85
47 | SKPKTFQAYGDDCHRRYSCAHCRA [L10G] | 2.79
48 | SKPKTFQAYLDDCHRRYSCATCRA [H21T] | 2.34

Row | Variant | protein stability index
49 | SKPKTFQAYLDDCHRRYFCAHCRA [S18F] | 1.91
50 | SKPKTFQAYLDDCHRRASCAHCRA [Y17A] | 1.99
51 | SKPKTFQAYLDDCHRRYSCNHCRA [A20N] | 2.92
52 | SKPKTFQAYLDDCHRTYSCAHCRA [R16T] | 2.46
53 | SKPKTFQAYLDDCHRRYSCAHPRA [C22P] | 2.61
54 | SKPKTFQAYLDDCHRRYSCAHCEA [R23E] | 2.09
55 | SKPKTFQAYLDDCHRRYSCAHCGA [R23G] | 1.39
56 | SKPKTFQAYLDDCHRRYSCAHCRR [A24R] | 1.71
57 | SKPKTFQAYLDDCHRRYSYAHCRA [C19Y] | 2.44
58 | SKPKTFQAYLDDCPRRYSCAHCRA [H14P] | 2.05
59 | SKPKTFQAYLDFCHRRYSCAHCRA [D12F] | 1.7
60 | SKPKTFQAYLDDCHRRYSNAHCRA [C19N] | 3.42
61 | SKPKTFCAYLDDCHRRYSCAHCRA [Q7C] | 1.96
62 | SKPKTFQAYLDDCHRRYSCAHCRK [A24K] | 3.42
63 | SKPKTFQAYLDDCHRRYSCAHSRA [C22S] | 1.86
64 | SKPKTFQAYLDDCHRRYSCAHCRF [A24F] | 2.59
65 | SKPKTFYAYLDDCHRRYSCAHCRA [Q7Y] | 1.85
66 | SKPKTFQAYLTDCHRRYSCAHCRA [D11T] | 2.14
67 | SKPKTFQAYEDDCHRRYSCAHCRA [L10E] | 3.4
68 | SMPKTFQAYLDDCHRRYSCAHCRA [K2M] | 1.7
69 | SKPKTFQAYLDDCVRRYSCAHCRA [H14V] | 2.15
70 | SKPKTFLAYLDDCHRRYSCAHCRA [Q7L] | 1.76
71 | SKPKTFQAYLDDCQRRYSCAHCRA [H14Q] | 2.23
72 | SKPKTFQAYLDDCHRRYSQAHCRA [C19Q] | 2.53

Row | Variant | protein stability index
73 | SKDKTFQAYLDDCHRRYSCAHCRA [P3D] | 2.11
74 | SKPKTFQAYLDKCHRRYSCAHCRA [D12K] | 2.9
75 | SKPKTFMAYLDDCHRRYSCAHCRA [Q7M] | 1.8
76 | SKPKTFQAYLDDCHRRYSCAHVRA [C22V] | 2.64
77 | SKPKTFQAYLQDCHRRYSCAHCRA [D11Q] | 2.21
78 | SKPRTFQAYLDDCHRRYSCAHCRA [K4R] | 1.86
79 | SKPKTWQAYLDDCHRRYSCAHCRA [F6W] | 2.44
80 | SKMKTFQAYLDDCHRRYSCAHCRA [P3M] | 3.01
81 | SKPKTFQAYLDDCHRLYSCAHCRA [R16L] | 2.33
82 | SKPKTFQAYVDDCHRRYSCAHCRA [L10V] | 1.57
83 | SKPKTFQAYLDDCHRRVSCAHCRA [Y17V] | 1.39
84 | SKPKTFQAYLDDCHRRYSCAHCRE [A24E] | 1.71
85 | SKPKTFQAYLDACHRRYSCAHCRA [D12A] | 2.19
86 | SKPKTFQAYLDDCHRRYSCAACRA [H21A] | 2.06
87 | SKPKTFQAYLDDCHRRYSRAHCRA [C19R] | 2.04
88 | SKPKTFQAELDDCHRRYSCAHCRA [Y9E] | 3
89 | SKPKTFQAYLDDTHRRYSCAHCRA [C13T] | 2.01
90 | SKPKTFQAYLDDCHSRYSCAHCRA [R15S] | 1.61
91 | SKPKTFQAYLDDYHRRYSCAHCRA [C13Y] | 2.44
92 | SKPKTFQAYLDDCHRRYSCAHCRD [A24D] | 1.73
93 | SKPKTFQHYLDDCHRRYSCAHCRA [A8H] | 2.51
94 | SKPKTFQAYLDDCHCRYSCAHCRA [R15C] | 2.72

Source: the supplement of paper PMC10567573
